Laboratory results published in patent US20260022396A1, “GENETIC CIRCUITS” (FONDAZIONE TELETHON ETS, priority 2022, published 2026).

How the values were obtained:
Assay type in all cases: cell-based, human
[1] = system: mCherry expression in HEK293T cells; test: pCMV/TO repression by rtTA-VPR, mCherry positive cells by flow cytometry (Example 1); conditions: presence of doxycycline (1000 ng/ml), rtTA-VPR co-transfected
Procedure: Flow Cytometry. Cells were collected 48 hours after transfection, washed and resuspended with PBS (Euroclone). Flow Cytometry analysis were carried out using an Accuri C6 (BD Biosciences), analyzing 10000 cells for each sample. A 488-nm laser with a 670 nm LP filter were used to excite and detect mCherry fluorescence.
HEK293T cells were transfected with a plasmid encoding the pCMV/TO promoter driving the expression of the fluorescent protein mCherry, and with a plasmid encoding the rtTA-VPR transcription factor driven by the strong constitutive pCMV promoter. A condition treated in the same way but without rtTA-VPR transfection was used as a negative control to account for any doxycycline treatment bias on mCherry expression. The percentage of mCherry positive cells was quantified through flow cytometry analysis in the absence and presence (1000 ng/ml) of doxycycline. The results of this experiment are shown in FIG. 3, where it can be appreciated that pCMV/TO efficiently represses the expression of the mCherry almost 25 times at the transcriptional level in the presence of doxycycline. pCMV/TO is efficiently repressed by the rtTA-VPR in the presence of doxycycline. Percentual mean values of at least three biological replicates are shown. Error bars indicate standard error.

[2] = system: Gaussia luciferase transcript harboring a Direct Repeat in its 3′UTR, HEK293T cells; test: CasRx repression of Gaussia luciferase reporter with or without Direct Repeat (Example 2)
Procedure: Luciferase assay. The cells were collected 48 hours after transfection and lysed with 25 μL of 5×Passive Lysis Buffer ([…]) diluted in water. Firefly Luciferase and Renilla Luciferase expression were measured using the Dual Luciferase Assay (Promega) on a Glomax Explorer plate reader (Promega). Firefly Luciferase Arbitrary Units (fLuc [A.U.]) were calculated by normalizing each sample's Firefly Luciferase activity to the constitutive Renilla activity detected in the same sample. Relative fLuc [A.U.] values have been calculated by dividing each sample's Firefly Luciferase Arbitrary Units by the Firefly Luciferase Arbitrary Units of the sample with no Doxycycline induction, in the case of Doxycycline dose-response curves. […] Luciferase activity was measured using Pierce™ Gaussia-Firefly Luciferase Dual Assay Kit (ThermoFisher Scientific) according to the manufacturer's instructions.
The findings of Example 1 were further confirmed by transfecting HEK293T cells with an increasing molar ratio of a plasmid encoding a Gaussia luciferase reporter gene, with or without Direct Repeats in its 3′UTR and a plasmid encoding the CasRx endoribonuclease. […] At least, three biological replicates were analyzed for each condition. Relative gLuc A.U. is calculated as the ratio between the gLuc A.U. values obtained transfecting the CasRx against the one which wasn't; this last corresponds to 1 gLuc A.U.

[3] = system: Gaussia Luciferase (gLuc) transcripts in HEK293 cells; test: Mutual inhibition CasRx / gLuc transcripts with no, one or four DR (Example 13)
Procedure: In order to confirm the mechanism of inhibition mediated by the output species “Z” on the repressor species “Y” in genetic circuits according to preferred embodiments of the invention, HEK293 cells were co-transfected with CasRx endoribonuclease (species Y) and Gaussia Luciferase (gLuc) transcripts, the latter bearing in the 3′UTR either no Direct Repeat (DR), one DR, or four tandem DR motifs (4×DRs). The hypothesis tested was that upon CasRx binding, only one DR motifs would effectively contribute to transcript cleavage and subsequent degradation. Therefore, in transcripts bearing multiple DR motifs, the remaining DR motifs, not contributing to transcript cleavage, would act as decoys, sequestering active CasRx from the unbound pool. As a result, the CasRx repression efficacy on gLuc expression should decrease.
The luciferase emission of each sample was measured to quantify the expression of the gLuc at increasing amounts of co-transfected plasmid encoding the CasRx. […] (FIG. 25). Increasing the amount of DR copies in the 3′UTR thus enhances the “sponge” effect, inhibiting the cleavage efficacy of CasRx.

[4] = system: Firefly Luciferase driven by CMV/2B promoter in HEK293T cells; test: CMV/2B promoter repression by VPR-dCas9-N8 and gRNA_B, Luc assay (Example 12); conditions: VPR-dCas9-N8 with gRNA_B vs scramble gRNA_AB
Procedure: Luciferase assay. The cells were collected 48 hours after transfection and lysed with 25 μL of 5×Passive Lysis Buffer ([…]) diluted in water. Firefly Luciferase and Renilla Luciferase expression were measured using the Dual Luciferase Assay (Promega) on a Glomax Explorer plate reader (Promega). Firefly Luciferase Arbitrary Units (fLuc [A.U.]) were calculated by normalizing each sample's Firefly Luciferase activity to the constitutive Renilla activity detected in the same sample. Relative fLuc [A.U.] values have been calculated by dividing each sample's Firefly Luciferase Arbitrary Units by the Firefly Luciferase Arbitrary Units of the sample with no Doxycycline induction, in the case of Doxycycline dose-response curves. In the case of Shield1 treatment, Relative fLuc [A.U.] values have been obtained by dividing each sample's Firefly Luciferase Arbitrary Units by the Firefly Luciferase Arbitrary Units of the sample treated with the maximum dose of Shield1 used, 1000 nM. Regarding experiments comprising Gaussia Luciferase and RedFireFly Luciferase, cells expressing those luciferases were harvested 48 h after transfection. Cells were disrupted with 100 μL/well of 1×Cell Lysis buffer and shaken for 15 min. Luciferase activity was measured using Pierce™ Gaussia-Firefly Luciferase Dual Assay Kit (ThermoFisher Scientific) according to the manufacturer's instructions. […]

B1: pCMV/TO: modified CMV promoter bearing two Tetracycline Operon (TO) sequences, SEQ ID NO: 8 (nucleic acid)
DNA: CGTTACATAACTTACGGTAAATGGCCCGCCTGGCTGACCGCCCAACGACCCCCGCCCATTGACGTCAATAATGACGTATGTTCCCATAGTAACGCCAATAGGGACTTTCCATTGACGTCAATGGGTGGAGTATTTACGGTAAACTGCCCACTTGGCAGTACATCAAGTGTATCATATGCCAAGTACGCCCCCTATTGACGTCAATGACGGTAAATGGCCCGCCTGGCATTATGCCCAGTACATGACCTTATGGGACTTTCCTACTTGGCAGTACATCTACGTATTAGTCATCGCTATTACCATGGTGATGCGGTTTTGGCAGTACATCAATGGGCGTGGATAGCGGTTTGACTCACGGGGATTTCCAAGTCTCCACCCCATTGACGTCAATGGGAGTTTGTTTTGGCACCAAAATCAACGGGACTTTCCAAAATGTCGTAACAACTCCGCCCCATTGACGCAAATGGGCGGTAGGCGTGTACGGTGGGAGGTCTATATAAGCAGAGCTCTCCCTATCAGTGATAGAGATCTCCCTATCAGTGATAGAGA
- repression of mCherry expression [1]: ~25 times

B2: CasRx: CRISPR-Cas RNase derived from Ruminococcus flavefaciens, SEQ ID NO: 2 (protein)
chain: IEKKKSFAKGMGVKSTLVSGSKVYMTTFAEGSDARLEKIVEGDSIRSVNEGEAFSAEMADKNAGYKIGNAKFSHPKGYAVVANNPLYTGPVQQDMLGLKETLEKRYFGESADGNDNICIQVIHNILDIEKILAEYITNAAYAVNNISGLDKDIIGFGKFSTVYTYDEFKDPEHHRAAFNNNDKLINAIKAQYDEFDNFLDNPRLGYFGQAFFSKEGRNYIINYGNECYDILALLSGLRHWVVHNNEEESRISRTWLYNLDKNLDNEYISTLNYLYDRITNELTNSFSKNSAANVNYIAETLGINPAEFAEQYFRFSIMKEQKNLGFNITKLREVMLDRKDMSEIRKNHKVFDSIRTKVYTMMDFVIYRYYIEEDAKVAAANKSLPDNEKSLSEKDIFVINLRGSFNDDQKDALYYDEANRIWRKLENIMHNIKEFRGNKTREYKKKDAPRLPRILPAGRDVSAFSKLMYALTMFLDGKEINDLLTTLINKFDNIQSFLKVMPLIGVNAKFVEEYAFFKDSAKIADELRLIKSFARMGEPIADARRAMYIDAIRILGTNLSYDELKALADTFSLDENGNKLKKGKHGMRNFIINNVISNKRFHYLIRYGDPAHLHEIAKNEAVVKFVLGRIADIQKKQGQNGKNQIDRYYETCIGKDKGKSVSEKVDALTKIITGMNYDQFDKKRSVIEDTGRENAEREKFKKIISLYLTVIYHILKNIVNINARYVIGFHCVERDAQLYKEKGYDINLKKLEEKGFSSVTKLCAGIDETAPDKRKDVEKEMAERAKESIDSLESANPKLYANYIKYSDEKKAEEFTRQINREKAKTALNAYLRNTKWNVIIREDLLRIDNKTCTLFRNKAVHLEVARYVHAYINDIAEVNSYFQLYHYIMQRIIMNERYEKSSGKVSEYFDAVNDEKKYNDRLLKLLCVPFGYCIPRFKNLSIEALFDRNEAAKFDKEKKKVSGNS
- post-transcriptional inhibition of luciferase expression ([2]; 10 times molar excess of CasRx): ~200 folds
- expression of Gaussia luciferase with DR in 3′UTR ([2]; equimolar amount of plasmid encoding CasRx, relative to no CasRx): 5%
- decrease of gLuc expression ([3]; transcript having one DR, increasing amount of co-transfected CasRx): ~2 log
- luciferase values ([3]; transcript with 4×DRs, presence of CasRx): higher luciferase values in the presence of CasRx compared to a single DR

B3: CMV/2B: CMV promoter with gRNA_B binding sites downstream of the TATA box, repressed by VPR-dCas9-N8, SEQ ID NO: 48 (nucleic acid)
DNA: CGTTACATAACTTACGGTAAATGGCCCGCCTGGCTGACCGCCCAACGACCCCCGCCCATTGACGTCAATAATGACGTATGTTCCCATAGTAACGCCAATAGGGACTTTCCATTGACGTCAATGGGTGGAGTATTTACGGTAAACTGCCCACTTGGCAGTACATCAAGTGTATCATATGCCAAGTACGCCCCCTATTGACGTCAATGACGGTAAATGGCCCGCCTGGCATTATGCCCAGTACATGACCTTATGGGACTTTCCTACTTGGCAGTACATCTACGTATTAGTCATCGCTATTACCATGGTGATGCGGTTTTGGCAGTACATCAATGGGCGTGGATAGCGGTTTGACTCACGGGGATTTCCAAGTCTCCACCCCATTGACGTCAATGGGAGTTTGTTTTGGCACCAAAATCAACGGGACTTTCCAAAATGTCGTAACAACTCCGCCCCATTGACGCAAATGGGCGGTAGGCGTGTACGGTGGGAGGTCTATATAAGCAGAGCTGCCGTCTTCCGTTTCCACATCTTCACGGATACCAAGGTGGCACCGGTTTGATTGCACAGCCCGTCTTCCGTTTCCACATCTTCACGG
- percentage of repression of the CMV/2B [4]: around 60%
